Here are results for six molecules from US20220152100A1, “METHODS FOR CONTROLLED ACTIVATION OR ELIMINATION OF THERAPEUTIC CELLS” (Bellicum Pharmaceuticals, Inc., priority 2014, published 2022).

Entries after “also recorded” stand apart in the source; their conditions may differ. Where a SMILES comes first, the peptide text is derived from it. The star is where a group is joined. Cbz = O=C(OCc1ccccc1)*; CH2F = FC*

The subject of series [1] is EBV-specific CTL lines (EBV-CTL). Kind of series: CID-induced elimination/apoptosis of transduced EBV-CTLs (GFP, annexin V/7-AAD flow cytometry). Conditions: 100 μM for 1 hour prior to adding CID. The series is classed as cell-based, human. (Flow cytometry measures light scatter and fluorescence of single cells or particles in a stream.)
The next series relates to HEK293T/16 cells. In words: SEAP-based surrogate killing assay of iCasp9 mutants. The series is classed as cell-based, human. Conditions: for effect on basal / catalytic activity: in words, versus wild type. The method, then: Early passage HEK293T/16 cells (ATCC, Manassas, Va.) were maintained in IMDM, GlutaMAX™ (Life Technologies, Carlsbad, Calif.) supplemented with 10% FBS, 100 U/mL penicillin, and 100 […] until transfection in a humidified, 37° C., 5% CO2/95% air atmosphere. Cells in logarithmic-phase growth were transiently transfected with 800 ng to 2 μg of expression plasmid encoding iCasp9 mutants and 500 ng of an expression plasmid encoding SRα promoter driven SEAP per million cells in 15-mL conical tubes. […] GeneJammer® Transfection Reagent at a ratio of 3 μl per ug of plasmid DNA was used to transiently transfect HEK293T/16 cells in the absence of antibiotics. 100 μl or 2 mL of the transfection mixture was added to each well in 96-well or 6-well plate, respectively.
Briefly, after 65° C. heat denaturation for 45 minutes to reduce background caused by endogenous (and serum-derived) alkaline phosphatases that are sensitive to heat, 5 μl of supernatants was added to 95 μl of PBS and added to 100 μl of substrate buffer, containing 1 μl of 100 mM 4-methylumbelliferyl phosphate (4-MUP; Sigma, St. Louis, Mo.) re-suspended in 2 M diethanolamine. Hydrolysis of 4-MUP by SEAP produces a fluorescent […] with excitation/emission (355/460 nm), which can be easily measured. Assays were performed in black opaque 96-well plates to minimize fluorescence leakage between wells. […] of the mixture was seeded onto each well of a 96-well plate. […] For the assay, 4-methylumbelliferyl phosphate substrate was hydrolyzed by SEAP to 4-methylumbelliferon, a metabolite that can be excited with 364 nm and detected with an emission filter of 448 nm. Since SEAP is used as a marker for cell viability, reduced SEAP reading corresponds with increased iCaspase-9 activities.

Another series relates to PG13. The series is classed as cell-based. Conditions: for CD19 mean fluorescence intensity (MFI): PG13 cross-transduced five times; for viral titers: upon HAT media treatment, HT1080 cells.
Another series has as its system Primary T cells. In words: AP1903-dependent cytotoxicity in primary T cells transduced with iCasp9 variants (CD3+CD19+ flow cytometry). Conditions: for killing of target T cells: AP1903 at Day 0 and day 4, within 10 days. The series is classed as cell-based, human. The protocol:
The effects of various caspase polypeptides at mostly single copy in primary T cells was assayed. This may reflect more accurately how these suicide genes will be used therapeutically.
Primary T cells from healthy donors (n=6) were transduced with retrovirus encoding mutant or wild-type iCasp9 or iCasp9-D330A, and the ΔCD19 cell surface marker. Following transduction, iCasp9-transduced T cells were purified using CD19-microbeads and a magnetic column.

In the case of `COC(=O)C[C@H](NC(=O)[C@H](C)NC(=O)[C@@H](NC(=O)OCc1ccccc1)C(C)C)C(=O)CF` [zVAD-fmk] (Cbz-Val-Ala-Asp(OMe)-CH2F), the “effect on CID-induced apoptosis” value in series [1] is “inhibited”.

B1: D330A: chimeric modified Caspase-9 polypeptide, SEQ ID NO: 24 (protein)
chain: GFGDVGALESLRGNADLAYILSMEPCGHCLIINNVNFCRESGLRTRTGSNIDCEKLRRRFSSLHFMVEVKGDLTAKKMVLALLELARQDHGALDCCVVVILSHGCQASHLQFPGAVYGTDGCPVSVEKIVNIFNGTSCPSLGGKPKLFFIQACGGEQKDHGFEVASTSPEDESPGSNPEPDATPFQEGLRTFDQLAAISSLPTPSDIFVSYSTFPGFVSWRDPKSGSWYVETLDDIFEQWAHSEDLQSLLLRVANAVSVKGIYKQMPGCFNFLRKKLFFKTS
In the case of B1, the “relative SEAP activity Units (basal, without AP1903)” value in the series on HEK293T/16 cells (1 μg iCasp9 per million cells) is given as 148928; in the series with HEK293T/16 cells (2 μg iCasp9 per million cells), 136863. The “effect on basal / catalytic activity” value in the series with HEK293T/16 cells was “lowered basal activity, but not as low as in N405Q; also recorded: less basal activity than wild type Caspase-9”. Besides, the “CD19 mean fluorescence intensity (MFI)” value in the series with PG13 is recorded as “enhanced CD19 mean fluorescence intensity”. In the series on PG13, the viral titers entry is reported as “higher viral titers”. Also, the “sensitivity to AP1903 / killing of target cells” value in the series with Primary T cells was “more sensitive to AP1903 at low titers and kills at least as well as WT Caspase-9”. In addition, the “IC50 of AP1903” value in the series on Primary T cells (6 healthy donors, AP1903 0-100 nM, 24 hours) is recorded as “significantly lower”.

B2: N405Q: chimeric modified Caspase-9 polypeptide, SEQ ID NO: 26 (protein)
chain: GFGDVGALESLRGNADLAYILSMEPCGHCLIINNVNFCRESGLRTRTGSNIDCEKLRRRFSSLHFMVEVKGDLTAKKMVLALLELARQDHGALDCCVVVILSHGCQASHLQFPGAVYGTDGCPVSVEKIVNIFNGTSCPSLGGKPKLFFIQACGGEQKDHGFEVASTSPEDESPGSNPEPDATPFQEGLRTFDQLDAISSLPTPSDIFVSYSTFPGFVSWRDPKSGSWYVETLDDIFEQWAHSEDLQSLLLRVANAVSVKGIYKQMPGCFQFLRKKLFFKTS
As for B2, in the series with HEK293T/16 cells (1 μg iCasp9 per million cells), the “relative SEAP activity Units (basal, without AP1903)” value came to 179081. Moreover, the “relative SEAP activity Units (basal, without AP1903)” value in the series with HEK293T/16 cells (2 μg iCasp9 per million cells) is on record as 175529. For the same molecule, in the series with HEK293T/16 cells, the “effect on basal / catalytic activity” value is reported as “lowered basal activity; also recorded: lower basal activity than D330A”. In addition, in the series on PG13, the “CD19 mean fluorescence intensity (MFI)” value was “enhanced CD19 mean fluorescence intensity” and the viral titers entry is given as “higher viral titers”. Also, in the series on Primary T cells, the “sensitivity to AP1903 / killing of target cells” value is “less sensitive to AP1903 and cannot kill target cells as efficiently within 24 hours”; the “killing of target T cells” value is reported as “can kill target T cells indistinguishable from wild type Caspase-9 polypeptide or D330A within 10 days”.

B3: D330E: chimeric modified Caspase-9 polypeptide, SEQ ID NO: 188 (protein)
chain: VDGFGDVGALESLRGNADLAYILSMEPCGHCLIINNVNFCRESGLRTRTGSNIDCEKLRRRFSSLHFMVEVKGDLTAKKMVLALLELARQDHGALDCCVVVILSHGCQASHLQFPGAVYGTDGCPVSVEKIVNIFNGTSCPSLGGKPKLFFIQACGGEQKDHGFEVASTSPEDESPGSNPEPDATPFQEGLRTFDQLEAISSLPTPSDIFVSYSTFPGFVSWRDPKSGSWYVETLDDIFEQWAHSEDLQSLLLRVANAVSVKGIYKQMPGCFNFLRKKLFFKTSASRA
As for B3, the “effect on basal / catalytic activity” value with HEK293T/16 cells is recorded as “less basal activity than wild type Caspase-9”. In addition, in the series with PG13, the “CD19 mean fluorescence intensity (MFI)” value is listed as “enhanced CD19 mean fluorescence intensity” and the viral titers entry is “higher viral titers”.

B4: D330S: chimeric modified Caspase-9 polypeptide (protein)
chain: VDGFGDVGALESLRGNADLAYILSMEPCGHCLIINNVNFCRESGLRTRTGSNIDCEKLRRRFSSLHFMVEVKGDLTAKKMVLALLELARQDHGALDCCVVVILSHGCQASHLQFPGAVYGTDGCPVSVEKIVNIFNGTSCPSLGGKPKLFFIQACGGEQKDHGFEVASTSPEDESPGSNPEPDATPFQEGLRTFDQLSAISSLPTPSDIFVSYSTFPGFVSWRDPKSGSWYVETLDDIFEQWAHSEDLQSLLLRVANAVSVKGIYKQMPGCFNFLRKKLFFKTSASRA
On to B4, for which the “effect on basal / catalytic activity” value with HEK293T/16 cells is reported as “less basal activity than wild type Caspase-9”.

B5: F404Y: chimeric modified Caspase-9 polypeptide (protein)
chain: VDGFGDVGALESLRGNADLAYILSMEPCGHCLIINNVNFCRESGLRTRTGSNIDCEKLRRRFSSLHFMVEVKGDLTAKKMVLALLELARQDHGALDCCVVVILSHGCQASHLQFPGAVYGTDGCPVSVEKIVNIFNGTSCPSLGGKPKLFFIQACGGEQKDHGFEVASTSPEDESPGSNPEPDATPFQEGLRTFDQLDAISSLPTPSDIFVSYSTFPGFVSWRDPKSGSWYVETLDDIFEQWAHSEDLQSLLLRVANAVSVKGIYKQMPGCYNFLRKKLFFKTSASRA
As to B5, the “killing of target T cells” value with Primary T cells is “can kill target T cells indistinguishable from wild type Caspase-9 polypeptide or D330A within 10 days”.
